Data taken from article PMC3285596 (PLoS Pathogens, 2012).

Target: T1, STAT1_(1–683), truncated, unphosphorylated human STAT1 (human, UniProt P42224 1-683)
T1 construct: also called unphosphorylated STAT1_(1–683); not shown: HA, C-terminal, kept
T1 sequence (looked up): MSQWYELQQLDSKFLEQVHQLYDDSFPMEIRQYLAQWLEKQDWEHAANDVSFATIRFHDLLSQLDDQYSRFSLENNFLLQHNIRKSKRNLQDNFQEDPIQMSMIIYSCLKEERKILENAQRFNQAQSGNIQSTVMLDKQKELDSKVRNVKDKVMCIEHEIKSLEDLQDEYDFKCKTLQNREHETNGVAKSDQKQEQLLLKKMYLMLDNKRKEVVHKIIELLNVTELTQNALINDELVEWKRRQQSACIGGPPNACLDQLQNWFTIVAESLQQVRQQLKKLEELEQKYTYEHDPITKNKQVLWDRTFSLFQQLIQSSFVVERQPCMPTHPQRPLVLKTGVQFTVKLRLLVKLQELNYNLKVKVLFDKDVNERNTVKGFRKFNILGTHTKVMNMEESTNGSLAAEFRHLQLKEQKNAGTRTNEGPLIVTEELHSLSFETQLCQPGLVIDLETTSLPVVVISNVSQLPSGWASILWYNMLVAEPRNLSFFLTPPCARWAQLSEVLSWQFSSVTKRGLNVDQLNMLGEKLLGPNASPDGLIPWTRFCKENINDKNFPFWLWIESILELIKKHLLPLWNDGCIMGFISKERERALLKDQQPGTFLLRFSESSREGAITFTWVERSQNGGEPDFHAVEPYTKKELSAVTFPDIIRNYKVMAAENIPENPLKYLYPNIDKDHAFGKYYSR
Test: ELISA
Settings: both partners purified

B1: Ebola virus (Zaire) VP24 residues 1-233 (EBOV_(1–233)) (domain or fragment)
chain: MAKATGRYNLISPKKDLEKGVVLSDLCNFLVSQTIQGWKVYWAGIEFDVTHKGMALLHRLKTNDFAPAWSMTRNLFPHLFQNPNSTIESPLWALRVILAAGIQDQLIDQSLIEPLAGALGLISDWLLTTNTNHFNMRTQRVKEQLSLKMLSLIRSNILKFINKLDALHVVNYNGLLSSIEIGTQNHTIIITRTNMGFLVELQEPDKSAMNRMKPGPAKFSLLHESTLKAFTQG
binding result: binds
